Laboratory results reported in US9200265B2, “Anti-cocaine compositions and treatment” (priority 2006, dated 2015).
Like-named read-outs stand apart in the source and are kept apart here.

How the values were obtained:
[1] = cocaethylene; cited from earlier work
[2] = test system: CocE antibodies; assay: Direct ELISA specific for CocE antibodies in serum of mice; assay type: in vivo, mouse
Experimental: CocE can be used in incomplete Freund's adjuvant (IFA) to immunize mice (see Table 4). A direct ELISA specific for CocE antibodies was set up by a standard protocol. CocE was used (1 ug/ml) to coat a 96-well micro-titer plate using a borate buffered saline (1.5 M NaCl, 0.5 M H3BO3, 1.0 M NaOH) to resuspend the cocaine esterase (50 uL/well). The coating plates was left overnight at 4 C. The coating buffer was removed the following morning and the plates blocked with 2% normal goat serum in PBS for 1 hr at 37 C and washed 3 times. Serum from the various groups of mice was serially diluted in 50 μL of PBS in the wells in a range of 10^2 to […] and run in duplicate. The plates were covered and incubated for 30 minutes at 37 C. Subsequently, the plates were washed 3 times and 50 μL/well of Goat anti-mouse IgG peroxidase labeled antibody diluted 1:400. The plates were then washed 3 times and 100 μL peroxidase substrate solution (OPD dissolved in citratelphosphate buffer) was added to each well. After a 5-10 minute incubation (based upon color development in the positive controls) the reaction was stopped using 3M H2SO4 (50 μL/well). […] Positive controls were derived by immunizing Balb/c mice with 100 μg in 100 μL of Cocaine esterase emulsified in incomplete Freund's adjuvant […] by intraperitoneal (IP) injection. In Positive 1 group the serum was isolated from 2 week immunized mice. In Positive 2 group immunized mice were boosted using 100 μg in 100 μL by IP injection at 2 weeks post-primary immunization and the serum collected after an additional week (3 week post-primary).

[3] = Cocaine spectrophotometric assay (240 nm), Michaelis-Menten kinetics
[4] = test system: cocaine-induced lethality; assay: Cocaine toxicity in mice, incl. repeated CocE doses; assay type: in vivo, mouse
From the text: The animal toxicity model was similar to that described previously, except as described. Male NIH Swiss mice were used. For tail intravenous injection, mice are placed in a small restraint chamber that exposes their tail. A heat lamp with an infrared, 250 w bulb is placed about 4 inches from the tail, and left for a couple of minutes. The tail is then cleansed with an alcohol wipe and a 30 G ½ precision glide needle (Fisher Scientific), is inserted into one of the side veins for infusion. To verify whether the needle is in the vein a small amount of drug is infused, if in the correct location the solution should infuse easily without any indication of an incorrect subcutaneous location, which appears white at the site of injection. For intravenous catheterization, Male NIH Swiss mice are anesthetized with ketamine 100 mg/kg and xylazine 10 mg/kg co-administered i.p. When mice are no longer responsive to paw pressure, the neck is shaved and prepped by alternating Betadine and alcohol wipes. Under clean conditions, a right transverse neck incision is made and the external jugular vein is isolated. A catheter is inserted into the vein with the aid of a dissecting microscope to the level of the right atrium, and is secured in the vein with nylon, 4-0 sutures and tissue adhesive, 3M Vetbond (3M Animal Care Products, St. Paul, Minn.). The catheters are a short length of Tygon tubing with an inner diameter of 0.010 in. and an outer diameter of 0.030 in. (Small Parts, Inc., Miami Lakes, Fla.). A small incision is made in the middle of the animal's back, and a trocar inserted subcutaneously to exit at the ventral incision site. The catheter is then pulled through the trocar and brought out the animal's back where it is held in place with nylon suture material and the tissue adhesive. A short piece of steel wire with a diameter of 0.011 in. (Small Parts, Inc., Miami Lakes, Fla.) is inserted into the end of the catheter. The ventral incision is closed with 4-0 Vicryl suture material and the mouse placed under a heat lamp for recovery. Approximately an hour later, the mouse is returned to its home cage.
Mice that survived a first administration of the combination of 0.32 mg CocE and 320 mg/kg cocaine were given this combination again, 14 days following the initial administration.

[5] = Low-UV CD spectra melt with CCA deconvolution; assay type: physicochemical; conditions: for #3 formation: accumulation of the fully melted protein; for #1 melt: initial spectra melts, 0.2 mg/ml; for #2 melt: melt of the intermediate state
Experimental: Low-UV CD spectra data were obtained using an Aviv Spectropolarimeter Mode 400, with the help of Norma Greenfield, UMDNJ, using a 5-cell holder and 0.2 mg/ml protein concentrations. Raw data values obtained were blanked on control PBS, smoothed, and deconvoluted using the CCA algorithm as described by A. Perczel, K. Park, and G. D. Fasman, [Analysis of the circular dichroism spectrum of proteins using the convex constraint algorithm: a practical guide. Analytical Biochemistry 203, 83-93 (1992).] This algorithm finds the minimum number of curves needed to reconstruct a data set, and expresses the percentage each curve contributes to the data set as a function of temperature.
Below is presented a low UV CCA denconvolution analysis of CocE WT and 4 mutants, obtained in a single CD spectra melt using a 5-cell holder. The experiment was performed over the period of 8 hours, from 0-80° C.
Temperature dependent melting was observed between the wavelengths tested (200-250 nm), and the smoothed spectra for each mutant are shown in FIG. 29. […] Dose response analysis was used to approximate the temperature at which the initial spectra melts (1), the formation and melt of the intermediate state (2), and the accumulation of the fully melted protein (3).

[6] = Ex vivo cocaine degradation by CocE in human plasma (HPLC tandem MS)
[7] = test system: cocaine-induced lethality; assay: Rodent model of acute cocaine toxicity (convulsions and lethality) in rats; conditions: for protection against cocaine-induced lethality: one minute before 180 mg/kg cocaine
[8] = purified wild-type, cocaine, PBS pH 7.4
[9] = 1.0 mg i.v. one minute after cocaine i.p., rats

B1: CocE: wild-type cocaine esterase of Rhodococcus sp. MB 1, SEQ ID NO: 1, Accession No. AF173165 (protein)
chain: MVDGNYSVASNVMVPMRDGVRLAVDLYRPDADGPVPVLLVRNPYDKFDVFAWSTQSTNWLEFVRDGYAVVIQDTRGLFASEGEFVPHVDDEADAEDTLSWILEQAWCDGNVGMFGVSYLGVTQWQAAVSGVGGLKAIAPSMASADLYRAPWYGPGGALSVEALLGWSALIGTGLITSRSDARPEDAADFVQLAAILNDVAGAASVTPLAEQPLLGRLIPWVIDQVVDHPDNDESWQSISLFERLGGLATPALITAGWYDGFVGESLRTFVAVKDNADARLVVGPWSHSNLTGRNADRKFGIAATYPIQEATTMHKAFFDRHLRGETDALAGVPKVRLFVMGIDEWRDETDWPLPDTAYTPFYLGGSGAANTSTGGGTLSTSISGTESADTYLYDPADPVPSLGGTLLFHNGDNGPADQRPIHDRDDVLCYSTEVLTDPVEVTGTVSARLFVSSSAVDTDFTAKLVDVFPDGRAIALCDGIVRMRYRETLVNPTLIEAGEIYEVAIDMLATSNVFLPGHRIMVQVSSSNFPKYDRNSNTGGVIAREQLEEMCTAVNRIHRGPEHPSHIVLPIIKR
modifications: Rhodococcus sp. MB1
In the case of B1, the Kcat [1] is given as 9.4 s⁻¹, the Km [1] is given as 1.6 µM and the “Titer (log10 dilution +/− SE)” value ([2]; Challenged and Treated (3x), CocE given with cocaine) is given as 3.33 +/− 0.333. For the same molecule, the “Titer (log10 dilution +/− SE)” value ([2]; Challenged and Treated (4x), CocE given with cocaine) was 3.5 +/− 0.5, the antibody titers ([2]; CocE i.v. during cocaine challenges) was “detectable but relatively low titers” and the antibody titer ([2]; CocE/IFA with an additional boost) was 10^6. For the same molecule, the “Titer (log10 dilution +/− SE)” value ([2]; Positive 1 (n = 3) 2 weeks, Immunized (IFA/IP)) was 5, the “Titer (log10 dilution +/− SE)” value ([2]; Positive 2 (n = 3) 3 weeks, Immunized/Boost (IFA/IP)) was 6 and the antibody titer ([2]; immunized once with CocE/IFA) was 10^5. The Km ([3]; 40 min @ 37° C.) was 12.3 µM, the Km ([3]; no preincubation) was 71.8 µM and the Kcat [3, 8] was “approx. 500 min^−1”. For the same molecule, the Km [3, 8] was about 2 µM, the “survival on second administration” value ([4]; 0.32 mg CocE and 320 mg/kg cocaine, 14 days following the initial administration) was “All of the mice survived” and the “survival on third administration” value ([4]; 0.32 mg CocE and 320 mg/kg cocaine, 21 days following the first dose) was “All mice also survived”. For the same molecule, the “time to death (average)” value ([4]; 1.0 gm/kg cocaine plus 1.0 mg of CocE, mice) was 28 min, the “shift in the potency of cocaine in producing death” value ([4]; both 0.32 and 1.O 'mg/kg cocaine' as printed, mice) was “dramatic shift to the right” and the “#3 formation” value [5] was 59 °C. The “#3 formation” value ([5]; listed as WT) was 59.86 °C, the “#2 formation” value ([5]; formation of the intermediate state) was 34.57 °C and the “#1 melt” value [5] was 37 °C. The “#1 melt” value ([5]; listed as WT) was 37.04 °C, the “#2 melt” value [5] was 50 °C and the “#2 melt” value ([5]; listed as WT) was 50.98 °C. For the same molecule, the “decrease of cocaine levels compared with vehicle-treated plasma” value ([6]; human plasma 37° C., 300 μM cocaine, 0.05 mg/ml CocE, within 1 min) was “at least 100 fold”, the “cocaine level after esterase” value ([6]; human plasma 37° C., 300 μM cocaine, 2-minute timepoint) was “below 1 microM” and the “cocaine concentration after esterase” value ([6]; human plasma 37° C., 300 μM cocaine, within 1 min) was “approximately 2 μM”. For the same molecule, the “cocaine concentrations in serum metabolized” value ([6]; in less than one minute (FIG. 15)) was 150 fold, the “protection against cocaine-induced lethality” value ([7]; 0.1 mg) was “no protection” and the lethality ([7]; 0.32 mg i.v. one minute after 1 g/kg cocaine i.p., rats) was 100%. The rats saved ([7]; 1 mg CocE 1 minute before cocaine (100 mg/kg)) was 100%, the rats survived ([7]; 1 mg CocE 30 minutes before cocaine (100 mg/kg)) was 66% and the protective effects ([7]; 1 mg CocE 100 min prior to cocaine) was “eliminated”. The rats survived ([7]; 1 mg CocE '1 minutes' before cocaine as printed (100 mg/kg)) was 32%, the “time after the LD100 dose of cocaine at which the enzyme provided protection” value ([7]; 1 mg CocE, 100 mg/kg cocaine) was “up to 6 minutes” and the “cocaine dose required to surmount the protective properties” value [7, 9] was 1000 mg/kg. The “shift in the cocaine-toxicity dose effect curve” value [7, 9] was “ten-fold shift”, the “protection against cocaine-induced lethality” value ([7]; 1 mg) was 100% and the “duration of anti-cocaine effect” value ([7]; preliminary studies in rats) was “more than 30 minutes”.
